Tests used:
[1] = target: Munc13L with C-terminal Halo tag (Munc13-1 residues 529-1735, C1-C2B-MUN-C2C domains, residues 1408-1452 replaced by EF) (UniProt Q62768); test: two-colour step-bleaching of co-clusters on a supported lipid bilayer
[2] = target: Munc13L with C-terminal Halo tag (Munc13-1 residues 529-1735, C1-C2B-MUN-C2C domains, residues 1408-1452 replaced by EF) (UniProt Q62768); test: two-colour TIRF co-localisation on a supported lipid bilayer

stoichiometry N (mole SNAP25/mole Munc13L) [1]: 0.8
Manders' coefficient (SNAP25:Munc13L) at 50 nM Munc13L [2]: 0.2
Manders' coefficient (SNAP25:Munc13L) at 1 μM Munc13L [2]: 0.6
Manders' coefficient at 1 μM Munc13L [2]: 0.7
Substance: single-cysteine (S28C) version of SNAP25^WT labeled with AlexaFluor555 (from UniProt P60879 1-206) (natural protein)

— publication PMC8068094
